The results in this text go back to patent publication US20260258146A1 (Regeneron, published 2026).

Common to all, as to experiment: cell-based or functional assay
Test [1] concerns the target T1, human CD28 on human primary CD3+ T cells (human, UniProt P10747 19-220).
Test [2] concerns the target T1, human CD28 on human primary CD3+ T cells. The source holds these as a separate data set.
Test [3] has the same target. This is another data set of the same source.
Test [4] shares this target. The source holds these as a separate data set.

B1: bsAb7945 (bispecific antibody, human IgG4 S228P, kappa)
heavy 1: QVQLVQSGAEVKKPGSSVKVSCKASGGPFRSSSFSWVRQAPGQGLEWMGGIIPILGKTNYAQKFQGRITIVTDESTTTVYMELSSLRSEDTAVFYCVRGSSLFDYWGQGTLVTVSSASTKGPSVFPLAPCSRSTSESTAALGCLVKDYFPEPVTVSWNSGALTSGVHTFPAVLQSSGLYSLSSVVTVPSSSLGTKTYTCNVDHKPSNTKVDKRVESKYGPPCPPCPAPPVAGPSVFLFPPKPKDTLMISRTPEVTCVVVDVSQEDPEVQFNWYVDGVEVHNAKTKPREEQFNSTYRVVSVLTVLHQDWLNGKEYKCKVSNKGLPSSIEKTISKAKGQPREPQVYTLPPSQEEMTKNQVSLTCLVKGFYPSDIAVEWESNGQPENNYKTTPPVLDSDGSFFLYSRLTVDKSRWQEGNVFSCSVMHEALHNHYTQKSLSLSLGK
heavy 2: QVQLQESGPGLVKPSETLSLTCTVSGGSISSYYWSWIRQPPGKGLEWIGYIYYSGITHYNPSLKSRVTISVDTSKIQFSLKLSSVTAADTAVYYCARWGVRRDYYYYGMDVWGQGTTVTVSSASTKGPSVFPLAPCSRSTSESTAALGCLVKDYFPEPVTVSWNSGALTSGVHTFPAVLQSSGLYSLSSVVTVPSSSLGTKTYTCNVDHKPSNTKVDKRVESKYGPPCPPCPAPPVAGPSVFLFPPKPKDTLMISRTPEVTCVVVDVSQEDPEVQFNWYVDGVEVHNAKTKPREEQFNSTYRVVSVLTVLHQDWLNGKEYKCKVSNKGLPSSIEKTISKAKGQPREPQVYTLPPSQEEMTKNQVSLTCLVKGFYPSDIAVEWESNGQPENNYKTTPPVLDSDGSFFLYSRLTVDKSRWQEGNVFSCSVMHEALHNRFTQKSLSLSPGK
light: not shown
For the molecule B1, in test [1], the “EC50 IL2 release; T cells + NALM-6/hPD-L1; bsAb7945 + Cemiplimab” value was 143 pM, the “EC50 IL2 release; T cells + NALM-6/hPD-L1; bsAb7945 + IgG4^P” value turned out to be 169 pM and the “EC50 IL2 release; T cells + NALM-6; bsAb7945 + Cemiplimab” value turned out to be 98.1 pM. Moreover, in test [2], the “EC50 IL2 release; T cells + HEK293/hCD20/hCD38; bsAb7945 + IgG4^P” value was 41.4 nM, the “EC50 IL2 release; T cells + HEK293/hCD20/hCD38; bsAb7945 + TAAxCD3” value is 5.02 pM and the “EC50 IL2 release; T cells + MOLP8; bsAb7945 + IgG4^P” value turned out to be 9.71 pM. Also, in test [3], the “EC50 IFNγ release; T cells + HEK293/hCD20/hCD38; bsAb7945 + TAAxCD3” value worked out at 123 pM and the “EC50 IFNγ release; T cells + MOLP8; bsAb7945 + TAAxCD3” value is 4.24 pM. Besides, in test [4], the “EC50 T-cell proliferation; T cells + HEK293/hCD20/hCD38; bsAb7945 + IgG4^P” value came out at 45.6 nM and the “EC50 T-cell proliferation; T cells + HEK293/hCD20/hCD38; bsAb7945 + TAAxCD3” value was determined as 0.894 pM.

B2: bsAb6031 (bispecific antibody, human IgG4 S228P, kappa)
heavy 1: EVQLVESGGGLVQPGRSLRLSCAASGFTFDDYAMHWVRQAPGKGLEWVSGISWKSDNIGYADSVKGRFTISRDNAKNSLYLQMNSLRAEDTALYYCAKALGGWKFDYYYGMDVWGQGTTVTVSSASTKGPSVFPLAPCSRSTSESTAALGCLVKDYFPEPVTVSWNSGALTSGVHTFPAVLQSSGLYSLSSVVTVPSSSLGTKTYTCNVDHKPSNTKVDKRVESKYGPPCPPCPAPPVAGPSVFLFPPKPKDTLMISRTPEVTCVVVDVSQEDPEVQFNWYVDGVEVHNAKTKPREEQFNSTYRVVSVLTVLHQDWLNGKEYKCKVSNKGLPSSIEKTISKAKGQPREPQVYTLPPSQEEMTKNQVSLTCLVKGFYPSDIAVEWESNGQPENNYKTTPPVLDSDGSFFLYSRLTVDKSRWQEGNVFSCSVMHEALHNHYTQKSLSLSLGK
heavy 2: EVQLVESGGGLVQPGGSLRLSCAASGFTFSRNNMHWVRQAPGKGLEYVSGISSNGGRTYYADSVKGRFTISRDNSKNTLYLQMGGLRAADMAVYFCTRDDELLSFDYWGQGTLVTVSSASTKGPSVFPLAPCSRSTSESTAALGCLVKDYFPEPVTVSWNSGALTSGVHTFPAVLQSSGLYSLSSVVTVPSSSLGTKTYTCNVDHKPSNTKVDKRVESKYGPPCPPCPAPPVAGPSVFLFPPKPKDTLMISRTPEVTCVVVDVSQEDPEVQFNWYVDGVEVHNAKTKPREEQFNSTYRVVSVLTVLHQDWLNGKEYKCKVSNKGLPSSIEKTISKAKGQPREPQVYTLPPSQEEMTKNQVSLTCLVKGFYPSDIAVEWESNGQPENNYKTTPPVLDSDGSFFLYSRLTVDKSRWQEGNVFSCSVMHEALHNRFTQKSLSLSPGK
light: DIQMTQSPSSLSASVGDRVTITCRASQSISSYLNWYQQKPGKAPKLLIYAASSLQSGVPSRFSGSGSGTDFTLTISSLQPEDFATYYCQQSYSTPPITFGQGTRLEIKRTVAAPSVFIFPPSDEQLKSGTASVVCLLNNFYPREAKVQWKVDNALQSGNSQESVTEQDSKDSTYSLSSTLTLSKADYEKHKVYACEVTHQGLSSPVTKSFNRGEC
For the molecule B2, in test [1], the “EC50 IL2 release; T cells + NALM-6/hPD-L1; bsAb6031 + Cemiplimab” value is 4.39 nM, the “EC50 IL2 release; T cells + NALM-6/hPD-L1; bsAb6031 + IgG4^P” value was 2.64 nM, the “EC50 IL2 release; T cells + NALM-6; bsAb6031 + Cemiplimab” value stood at 2.44 nM and the “EC50 IL2 release; T cells + NALM-6; bsAb6031 + IgG4^P” value is 1.68 nM. In test [2], the “EC50 IL2 release; T cells + HEK293/hCD20/hCD38; bsAb6031 + TAAxCD3” value was 199 pM, the “EC50 IL2 release; T cells + MOLP8; bsAb6031 + IgG4^P” value worked out at 653 pM and the “EC50 IL2 release; T cells + MOLP8; bsAb6031 + TAAxCD3” value turned out to be 1.02 nM. Moreover, in test [3], the “EC50 IFNγ release; T cells + HEK293/hCD20/hCD38; bsAb6031 + TAAxCD3” value was found to be 294 pM and the “EC50 IFNγ release; T cells + MOLP8; bsAb6031 + TAAxCD3” value amounted to 748 pM. For the same molecule, in test [4], the “EC50 T-cell proliferation; T cells + HEK293/hCD20/hCD38; bsAb6031 + TAAxCD3” value was 143 pM and the “EC50 T-cell proliferation; T cells + MOLP8; bsAb6031 + IgG4^P” value was determined as 467 pM.
